{
  "source": "paper PMC2939310",
  "about": "(Biochemistry, 2010)",
  "proteins": {"B1": {"name": "DesVII-C-His6/DesVIII-N-Stag heterodimer (complex, Streptomyces venezuelae)", "chain 1": "MRVLLTSFAHHTHYYGLVPLAWALLAAGHEVRVASQPALTDTITGSGLAAVPVGTDHLIHEYRVRMAGEPRPNHPAIAFDEARPEPLDWDHALGIEAILAPYFYLLANNDSMVDDLVDFARSWQPDLVLWEPTTYAGAVAAQVTGAAHARVLWGPDVMGSARRKFVALRDRQPPEHREDPTAEWLTWTLDRYGASFEEELLTGQFTIDPTPPSLRLDTGLPTVGMRYVPYNGTSVVPDWLSEPPARPRVCLTLGVSAREVLGGDGVSQGDILEALADLDIELVATLDASQRAEIRNYPKHTRFTDFVPMHALLPSCSAIIHHGGAGTYATAVINAVPQVMLAELWDAPVKARAVAEQGAGFFLPPAELTPQAVRDAVVRILDDPSVATAAHRLREETFGDPTPAGIVPELERLAAQHRRPPADARH", "chain 2": "MTDDLTGALTQPPLGRTVRAVADRELGTHLLETRGIHWIHAANGDPYATVLRGQADDPYPAYERVRARGALSFSPTGSWVTADHALAASILCSTDFGVSGADGVPVPQQVLSYGEGCPLEREQVLPAAGDVPEGGQRAVVEGIHRETLEGLAPDPSASYAFELLGGFVRPAVTAAAAAVLGVPADRRADFADLLERLRPLSDSLLAPQSLRTVRAADGALAELTALLADSDDSPGALLSALGVTAAVQLTGNAVLALLAHPEQWRELCDRPGLAAAAVEETLRYDPPVQLDARVVRGETELAGRRLPAGAHVVVLTAATGRDPEVFTDPERFDLARPDAAAHLALHPAGPYGPVASLVRLQAEVALRTLAGRFPGLRQAGDVLRPRRAPVGRGPLSVPVSSS"}},
  "target": "the molecule itself",
  "experiment": "SEC",
  "data": [
    {"protein": "B1", "values": [
      {"measurement": "stoichiometry N", "value": "3 heterodimers in the complex"}
    ]}
  ]
}
